Experimental findings from patent US20230192896A1 (BIOVERATIV THERAPEUTICS, published 2023) are described below.

One assay deals with T1, FIXa-SM (FIXa+EGR-CMK) (human, UniProt P00740 47-191; P00740 227-461, EGR-CMK (L-Glu-Gly-Arg chloromethyl ketone) covalently bound to the active site).
T1 construct: BLI antigen bought from Haematologic Technologies (HCIXA-EGR); also called FIXa with substrate mimic
Briefly: BLI; class meaning: paragraph 914. Background: In BLI a coated tip is dipped into the sample, and binding shifts an interference pattern.

For assay [1], the target named is T2, non-activatable Factor X (FXn) (Homo sapiens (Human), UniProt P00742 41-488, single biotin on the C-terminal BioTag).
T2 construct: also called BIIB-FX-015
Briefly: BLI; class meaning: paragraph 285.

B1: BIIB-9-592 (antibody, V domains shown)
VH: QLQLQESGPGLVKPSETLSLTCTVSGGSISSNSYYWGWIRQPPGKGLEWIGSIYYSGSTYYNPSLKSRVTISVDTSKNQFSLKLSSVTAADTAVYYCARDSNYDSSGYALYYYGMDVWGQGTTVTVSS
VL: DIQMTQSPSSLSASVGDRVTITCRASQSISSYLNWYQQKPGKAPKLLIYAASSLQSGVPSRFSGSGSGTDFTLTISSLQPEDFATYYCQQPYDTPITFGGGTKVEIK
notes: IgG
For the molecule B1, the binding result in the assay with FIXa-SM (FIXa+EGR-CMK) is reported as “binds”.

B2: BIIB-12-1327 (antibody, V domains shown)
VH: QVQLVESGGGVVQPGRSLRLSCAASGFTFSSYGMHWVRQAPGKGLEWVAVISYDGSNKYYADSVKGRFTISRDNSKNTLYLQMNSLRAEDTAVYYCAKLGLARGGGYGMDVWGQGTTVTVSS
VL: EIVMTQSPATQYVSPGERATLSCRASQSVSSNLAWYQQKPGQAPRLLIYGASTRATGIPARFSGSGSGTEFTLTISSLQSEDFAVYYCQQYHNFPPTFGGGTKVEIK
notes: IgG
As for B2, the binding result in assay [1] was “binds”.

B3: BIIB-12-1328 (antibody, V domains shown)
VH: QLQLQESGPGLVKPSETLSLTCTVSGGSISSSSYYWGWIRQPPGKGLEWIGSIYYSGSTYYNPSLKSRVTISVDTSKNQFSLKLSSVTAADTAVYYCARDPAYYSGHDYYYYGMDVWGQGTTVTVSS
VL: EIVMTQSPATLSVSPGERATLSCRASQSVSSNLAWYQQKPGQAPRLLIYGASTRATGIPARFSGSGSGTEFTLTISSLQSEDFAVYYCQQPNSYPLTFGGGTKVEIK
notes: IgG
As for B3, the binding result in assay [1] was “binds”.

B4: BIIB-12-1329 (antibody, V domains shown)
VH: QVQLVESGGGVVQPGRSLRLSCAASGFTFSSYGMHWVRQAPGKGLEWVAVISYDGSNKYYADSVKGRFTISRDNSKNTLYLQMNSLRAEDTAVYYCARGGAGSRYFQHWGQGTLVTVSS
VL: EIVMTQSPATKSVSPGERATLSCRASQSVSSNLAWYQQKPGQAPRLLIYSASTRATGIPARFSGSGSGTEFTLTISSLQSEDFAVYYCQQVFNWPPTFGGGTKVKIK
notes: IgG
Take B4: the binding result in assay [1] was “binds”.

B5: BIIB-12-1319 (antibody, V domains shown)
VH: QVQLVESGGGVVQPGRSLRLSCAASGFTFSSYGMHWVRQAPGKGLEWVAVISYDGSNKYYADSVKGRFTISRDNSKNTLYLQMNSLRAEDTAVYYCARTGYHRSVYYWGQGTLVTVSS
VL: EIVMTQSPATLSVSPGERATLSCRASQSVSSNLAWYQQKPGQAPRLLIYGASTRATGIPARFSGSGSGTEFTLTISSLQSEDFAVYYCQQASNFPPTFGGGTKVEI
notes: IgG
With B5, the binding result in assay [1] is “binds”.

B6: BIIB-12-1330 (antibody, V domains shown)
VH: QVQLVESGGGVVQPGRSLRLSCAASGFTFSSYGMHWVRQAPGKGLEWVAVISYDGSNKYYADSVKGRFTISRDNSKNTLYLQMNSLRAEDTAVYYCAKGGSARWINIWGQGTTVTVSS
VL: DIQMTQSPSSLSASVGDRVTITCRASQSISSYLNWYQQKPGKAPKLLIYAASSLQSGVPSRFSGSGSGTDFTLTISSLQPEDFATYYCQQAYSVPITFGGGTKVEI
notes: IgG
For B6, the binding result in assay [1] is “binds”.

B7: BIIB-9-590 (antibody, V domains shown)
VH: QVQLVQSGAEVKKPGASVKVSCKASGYTFTSYYMHWVRQAPGQGLEWMGIINPSGGSTSYAQKFQGRVTMTRDTSTSTVYMELSSLRSEDTAVYYCARDQEWAYYGMDVWGQGTTVTVSS
VL: EIVLTQSPATLSLSPGERATLSCRASQSVSSYLAWYQQKPGQAPRLLIYDASNRATGIPARFSGSGSGTDFTLTISSLEPEDFAVYYCQQVDNFPLTFGGGTKVEIK
notes: IgG
With B7, the binding result with FIXa-SM (FIXa+EGR-CMK) is “binds”.

B8: BIIB-12-1324 (antibody, V domains shown)
VH: QVQLVQSGAEVKKPGASVKVSCKASGYTFTSYYMVWVRQAPGQGLEWMGIINPSGGSTSYAQKFQGRVTMTRDTSTSTVYMELSSLRSEDTAVYYCARLPRYSKRGLDVWGQGTMVTVSS
VL: EIVMTQSPATLSLSPGERATLSCRASQSVSSYLAWYQQKPGQAPRLLIYDSSNRATGIPARFSGSGSGTDFTLTISSLEPEDFAVYYCQQLVSWPTFGGGTKVEIK
notes: IgG
On to B8, for which the binding result in assay [1] is recorded as “binds”.

B9: BIIB-9-616 (antibody, V domains shown)
VH: QVQLVQSGAEVKKPGASVKVSCKASGYTFTSYYMHWVRQAPGQGLEWMGIINPSGGSTSYAQKFQGRVTMTRDTSTSTVYMELSSLRSEDTAVYYCARGGSKYFFDLWGRGTLVTVSS
VL: EIVMTQSPATLSVSPGERATLSCRASQSVSSSLAWYQQKPGQAPRLLIYGASTRATGIPARFSGSGSGTEFTLTISSLQSEDFAVYYCQQADNFPFTFGGGTKVEIK
notes: IgG
For B9, the binding result in the assay with FIXa-SM (FIXa+EGR-CMK) is “binds”.

B10: BIIB-12-1318 (antibody, V domains shown)
VH: QVQLVESGGGVVQPGRSLRLSCAASGFTFSSYGMHWVRQAPGKGLEWVAVISYDGSNKYYADSVKGRFTISRDNSKNTLYLQMNSLRAEDTAVYYCARKGDYRSGSYSGRAFGIWGQGTMVTVSS
VL: EIVLTQSPATLSLSPGERATLSCRASQSVSSYLAWYQQKPGQAPRLLIYDASNRATGIPARFSGSGSGTDFTLTISSLEPEDFAVYYCQQLNNWPPTFGGGTKVEIK
notes: IgG
B10: in assay [1], the binding result is recorded as “binds”.

B11: BIIB-12-1333 (antibody, V domains shown)
VH: QVQLVQSGAEVKKPGASVKVSCKASGYTFTSYYMVWVRQAPGQGLEWMGIINPSGGSTSYAQKFQGRVTMTRDTSTSTVYMELSSLRSEDTAVYYCARVSRRDYPLAFDIWGQGTMVTVSS
VL: EIVMTQSPATLSVSPGERATLSCRASQSVSSNLAWYQQKPGQAPRLLIYGASTRATGIPARFSGSGSGTEFTLTISSLQSEDFAVYYCQQVNTWPTFGGGTKVEIK
notes: IgG
Turning to B11, in assay [1], the binding result is on record as “binds”.

B12: BIIB-9-608 (antibody, V domains shown)
VH: QLQLQESGPGLVKPSETLSLTCTVSGGSISSSSYYWGWIRQPPGKGLEWIGSIYYSGSTYYNPSLKSRVTISVDTSKNQFSLKLSSVTAADTAVYYCARDRLETSEAGMDVWGQGTTVTVSS
VL: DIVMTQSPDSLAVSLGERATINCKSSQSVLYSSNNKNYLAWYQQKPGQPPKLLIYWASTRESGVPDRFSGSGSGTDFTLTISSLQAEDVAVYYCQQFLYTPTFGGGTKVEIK
notes: IgG
For the molecule B12, the binding result with FIXa-SM (FIXa+EGR-CMK) is “binds”.

B13: BIIB-12-1322 (antibody, V domains shown)
VH: QVQLVQSGAEVKKPGASVKVSCKASGYTFTSYYIHWVRQAPGQGLEWMGIINPSGGSTSYAQKFQGRVTMTRDTSTSTVYMELSSLRSEDTAVYYCARSRQRHRGDWYFDLWGRGTLVTVSS
VL: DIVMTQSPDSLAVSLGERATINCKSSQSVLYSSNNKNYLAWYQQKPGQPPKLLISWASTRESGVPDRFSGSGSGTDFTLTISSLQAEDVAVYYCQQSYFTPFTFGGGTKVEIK
notes: IgG
As to B13, in assay [1], the binding result was “binds”.

B14: BIIB-12-1326 (antibody, V domains shown)
VH: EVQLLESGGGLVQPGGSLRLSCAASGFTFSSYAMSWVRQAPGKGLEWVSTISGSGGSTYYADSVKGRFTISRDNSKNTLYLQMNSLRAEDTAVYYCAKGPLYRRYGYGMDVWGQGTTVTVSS
VL: EIVLTQSPGTLSLSPGERATLSCRASQSVRSSYLAWYQQKPGQAPRLLIYGASSRATGIPDRFSGSGSGTDFTLTISRLEPEDFAVYYCQQAYSSPLTFGGGTKVEIK
notes: IgG
B14: in assay [1], the binding result was “binds”.

B15: BIIB-9-606 (antibody, V domains shown)
VH: QVQLVQSGAEVKKPGASVKVSCKASGYTFTSYYMHWVRQAPGQGLEWMGIINPSGGSTSYAQKFQGRVTMTRDTSTSTVYMELSSLRSEDTAVYYCARTKWSSSPYGMDVWGQGTTVTVSS
VL: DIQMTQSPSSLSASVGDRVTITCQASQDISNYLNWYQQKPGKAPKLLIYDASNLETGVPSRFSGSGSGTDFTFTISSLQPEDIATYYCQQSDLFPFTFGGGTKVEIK
notes: IgG
Consider B15, for which the binding result with FIXa-SM (FIXa+EGR-CMK) is “binds”.

B16: BIIB-9-569 (antibody, V domains shown)
VH: QVQLVQSGAEVKKPGASVKVSCKASGYTFTSYYMHWVRQAPGQGLEWMGIINPSGGSTSYAQKFQGRVTMTRDTSTSTVYMELSSLRSEDTAVYYCARDGSGYSPYSFDPWGQGTLVTVSS
VL: DIQMTQSPSSLSASVGDRVTITCQASQDISNYLNWYQQKPGKAPKLLIYDASNLATGVPSRFSGSGSGTDFTFTISSLQPEDIATYYCQQADDFPFTFGGGTKVEIK
notes: IgG
With B16, in the assay with FIXa-SM (FIXa+EGR-CMK), the binding result is on record as “binds”.

B17: BIIB-9-582 (antibody, V domains shown)
VH: QVQLVQSGAEVKKPGASVKVSCKASGYTFTSYYMVWVRQAPGQGLEWMGIINPSGGSTSYAQKFQGRVTMTRDTSTSTVYMELSSLRSEDTAVYYCARAPTYFYSYGMDVWGQGTTVTVSS
VL: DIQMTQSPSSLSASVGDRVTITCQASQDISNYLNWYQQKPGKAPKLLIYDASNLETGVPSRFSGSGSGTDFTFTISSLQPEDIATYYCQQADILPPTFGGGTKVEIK
notes: IgG
On to B17, for which the binding result with FIXa-SM (FIXa+EGR-CMK) was “binds”.

B18: BIIB-12-1325 (antibody, V domains shown)
VH: QVQLVQSGAEVKKPGASVKVSCKASGYTFTSYYMVWVRQAPGQGLEWMGIINPSGGSTSYAQKFQGRVTMTRDTSTSTVYMELSSLRSEDTAVYYCARGGRYMLDPWGQGTLVTVSS
VL: DIQMTQSPSTLSASVGDRVTITCRASQSISSWLAWYQQKPGKAPKLLIYKASSLESGVPSRFSGSGSGTEFTLTISSLQPDDFATYYCQQSNRYPRTFGGGTKVEIK
notes: IgG
In the case of B18, the binding result in assay [1] is “binds”.

B19: BIIB-9-581 (antibody, V domains shown)
VH: QVQLVQSGAEVKKPGASVKVSCKASGYTFTSYYMHWVRQAPGQGLEWMGIINPSGGSTSYAQKFQGRVTMTRDTSTSTVYMELSSLRSEDTAVYYCARDPLYYREGYVFDYWGQGTLVTVSS
VL: DIQMTQSPSSLSASVGDRVTITCRASQSISSYLNWYQQKPGKAPKLLIYAASSLQSGVPSRFSGSGSGTDFTLTISSLQPEDFATYYCQQSDLFPFTFGGGTKVEIK
notes: IgG
For the molecule B19, in the assay with FIXa-SM (FIXa+EGR-CMK), the binding result was “binds”.

B20: BIIB-12-1332 (antibody, V domains shown)
VH: QVQLVQSGAEVKKPGASVKVSCKASGYTFTSYYMSWVRQAPGQGLEWMGIINPSGGSTSYAQKFQGRVTMTRDTSTSTVYMELSSLRSEDTAVYYCARLGRKSRVFDIWGQGTMVTVSS
VL: DIQMTQSPSSVSASVGDRVTITCRASQGISSWLAWYQQKPGKAPKLLIYAASSLQSGVPSRFSGSGSGTDFTLTISSLQPEDFATYYCQQVNSFPLTFGGGTKVEFK
notes: IgG
B20: the binding result in assay [1] is reported as “binds”.

B21: BIIB-9-585 (antibody, V domains shown)
VH: QLQLQESGPGLVKPSETLSLTCTVSGGSISSSDYYWGWIRQPPGKGLEWIGSIYYSGSTYYNPSLKSRVTISVDTSKNQFSLKLSSVTAADTAVYYCAREVGTYYYGLDFWFDPWGQGTLVTVSS
VL: DIQMTQSPSSVSASVGDRVTITCRASQGISSWLAWYQQKPGKAPKLLIYAASSLQSGVPSRFSGSGSGTDFTLTISSLQPEDFATYYCQQANSYPITFGGGTKVEIK
notes: IgG
Take B21: the binding result with FIXa-SM (FIXa+EGR-CMK) is listed as “binds”.

B22: BIIB-12-1323 (antibody, V domains shown)
VH: QVQLVQSGAEVKKPGASVKVSCKASGYTFTSYYIHWVRQAPGQGLEWMGIINPSGGSTSYAQKFQGRVTMTRDTSTSTVYMELSSLRSEDTAVYYCARGRRFPRGLDYWGQGTLVTVSS
VL: DIQMTQSPSSVSASVGDRVTITCRASQGISSWLAWYQQKPGKAPKLLIYAASSLQSGVPSRFSGSGSGTDFTLTISSLQPEDFATYYCQQANIFPFTFGGGTKVEIK
notes: IgG
As to B22, the binding result in assay [1] is “binds”.

B23: BIIB-9-587 (antibody, V domains shown)
VH: QVQLVQSGAEVKKPGASVKVSCKASGYTFTSYYMHWVRQAPGQGLEWMGIINPSGGSTSYAQKFQGRVTMTRDTSTSTVYMELSSLRSEDTAVYYCARGPPGYEYYMDVWGKGTTVTVSS
VL: DIQMTQSPSSVSASVGDRVTITCRASQGISSWLAWYQQKPGKAPKLLIYAASSLQSGVPSRFSGSGSGTDFTLTISSLQPEDFATYYCQQADSFPFTFGGGTKVEIK
notes: IgG
With B23, the binding result with FIXa-SM (FIXa+EGR-CMK) is “binds”.
